In patent US20240210401A1, “METHOD OF USING PACAP AND VIP PEPTIDES FOR DETECTING SHED OR CIRCULATING TUMOR CELLS IN BIOLOGICAL FLUIDS” (Thomas Jefferson University, priority 2013, published 2024):

Biological target: T1, VPAC1 receptors expressed on the cell membrane of prostate cancer cells (Homo sapiens, UniProt P32241)
T1 construct: VPAC1 receptors expressed on the cell membrane of prostate cancer cells; endogenous in cells; host or cells: prostate cancer cells cytospun from patients' urine
T1 sequence (P32241 31-457): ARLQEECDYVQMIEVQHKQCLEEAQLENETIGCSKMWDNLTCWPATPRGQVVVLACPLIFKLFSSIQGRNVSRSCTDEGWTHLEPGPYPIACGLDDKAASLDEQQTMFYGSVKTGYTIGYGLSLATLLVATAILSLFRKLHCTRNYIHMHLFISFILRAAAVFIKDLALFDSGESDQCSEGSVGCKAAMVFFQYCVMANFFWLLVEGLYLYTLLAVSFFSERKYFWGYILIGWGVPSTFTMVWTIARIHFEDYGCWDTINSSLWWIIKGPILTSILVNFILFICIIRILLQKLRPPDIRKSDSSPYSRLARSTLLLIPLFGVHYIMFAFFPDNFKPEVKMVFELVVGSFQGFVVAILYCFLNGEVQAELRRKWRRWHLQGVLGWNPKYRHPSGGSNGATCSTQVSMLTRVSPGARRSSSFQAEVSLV
Assay: Confocal imaging of cells from urine samples of prostate cancer patients
Assay type: cell-based
From the text: The PACAP peptide, […]γAba-Lys (R) (SEQ ID NO: 7), was synthesized on a Wang resin using an ABI 341A peptide synthesizer (Applied Biosystems, Foster City, CA). The 27-amino acid long PACAP sequence was then assembled by standard Fmoc chemistry and coupled with a free sulfhydryl group attached to the C-terminus. This C-terminal sulfhydryl group was then reacted with a maleimide functionalized NIR dye to yield TP4303.
Urine samples from two patients, one with early phase prostate cancer and the other with advanced prostate cancer, were cytospinned, and cells were collected on glass slides. The cells were incubated with TP4303, washed with phosphate-buffered saline (PBS) and the slide was dried. The cells were treated with DAPI (4′,6-diamidino-2-phenylindole, a fluorescent stain that binds strongly to A-T rich regions in cellular DNA), a cover slip was placed on the sample and confocal microscopic analysis was performed (excitation, […]; emission, […]).

## His-Ser-Asp-Gly-Ile-Phe-Thr-Asp-Ser-Tyr-Ser-Arg-Tyr-Arg-Lys-Gln-Met-Ala-Val-Lys-Lys-Tyr-Leu-Ala-Ala-Val-Leu-γAba-Lys (R) (SEQ ID NO: 7) (HSDGIFTDSYSRYRKQMAVKKYLAAVLEK; maleimide NIR dye conjugated via C-terminal sulfhydryl; MOD_RES 28 4Abu) [TP4303, PACAP peptide with C-terminal sulfhydryl group reacted with a maleimide functionalized NIR dye]
Epithelial cells in the urine samples, identified by DAPI, not expressing VPAC1
  interaction with epithelial cells: did not interact
Sperm in the urine sample, identified by DAPI, not expressing VPAC1
  interaction with sperm: did not interact
Urine of two patients (early phase and advanced prostate cancer), confocal microscopy
  binding to VPAC1 receptors on prostate cancer cells: bound
